2 sequences from the supplement of paper PMC5998384 can be followed below.

Series [1] deals with HeLa Kyoto. Briefly: melting temperature (median over replicates), in situ; higher = more thermally stable.
Series [2] has as its system HeLa Kyoto. In words: solubility change mitosis vs G1/S (difference of NP-40 vs SDS log2 ratios) (log2 ratio difference); higher = more soluble in mitosis.
In series [3] the test system is HeLa Kyoto. Briefly: solubility in G1/S (NP-40 vs SDS abundance) (log2 ratio); higher = more soluble. To be noted: cell cycle stage: G1/S.
The test system of series [4] is HeLa Kyoto. In words: thermal stability score vs G1/S (z-score of summed log2 fold changes over temperatures); higher = more thermally stable than in G1/S.
[5] abbreviates: cell cycle stage: early G1 (4.5 h after nocodazole release).
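Throughout, for melting temperature (median over replicates), in situ: HeLa Kyoto cells synchronized by double thymidine or nocodazole block, proteins quantified by TMT10plex mass spectrometry, three independent biological replicates.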
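Throughout, for solubility change mitosis vs G1/S (difference of NP-40 vs SDS log2 ratios): synchronized HeLa Kyoto cells (double thymidine block for G1/S, nocodazole release for mitosis), protein amounts in NP-40 versus SDS lysates quantified by mass spectrometry, three biological replicates.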
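Throughout, for solubility in G1/S (NP-40 vs SDS abundance): HeLa Kyoto cells arrested at G1/S by double thymidine block, proteins quantified by TMT10plex mass spectrometry in mild NP-40 versus SDS extracts, three biological replicates.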
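Throughout, for thermal stability score vs G1/S (z-score of summed log2 fold changes over temperatures): synchronized HeLa Kyoto cells, proteins quantified by TMT10plex mass spectrometry, three biological replicates, mitosis taken 0.5 h after nocodazole release, G1/S directly after double thymidine block.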

Take “MADPDVLTEVPAALKRLAKYVIRGFYGIEHALALDILIRNSCVKEEDMLELLKFDRKQLRSVLNNLKGDKFIKCRMRVETAADGKTTRHNYYFINYRTLVNVVKYKLDHMRRRIETDERDSTNRASFKCPVCSSTFTDLEANQLFDPMTGTFRCTFCHTEVEEDESAMPKKDARTLLARFNEQIEPIYALLRETEDVNLAYEILEPEPTEIPALKQSKDHAATTAGAASLAGGHHREAWATKGPSYEDLYTQNVVINMDDQEDLHRASLEGKSAKERPIWLRESTVQGAYGSEDMKEGGIDMDAFQEREEGHAGPDDNEEVMRALLIHEKKTSSAMAGSVGAAAPVTAANGSDSESETSESDDDSPPRPAAVAVHKREEDEEEDDEFEEVADDPIVMVAGRPFSYSEVSQRPELVAQMTPEEKEAYIAMGQRMFEDLFE [GTF2E1]”: the melting temperature in the series with HeLa Kyoto [1] (cell cycle stage: G1/S) turned out to be 48.4 °C; in the series with HeLa Kyoto [1] (cell cycle stage: mitosis), 49.4 °C. Moreover, in the series on HeLa Kyoto [2], the “solubility change mitosis (log2)” value is -0.0795. For the same sequence, the “solubility in G1/S (log2)” value with HeLa Kyoto [3] was -0.111. Besides, the values for the thermal stability score in the series with HeLa Kyoto [4] (setting [5]) and with HeLa Kyoto [4] (cell cycle stage: mitosis) were 2.94 and 5.05, respectively.
For the sequence “MGSKGVYQYHWQSHNVKHSGVDDMVLLSKITENSIVENLKKRYMDDYIFTYIGSVLISVNPFKQMPYFGEKEIEMYQGAAQYENPPHIYALADNMYRNMIIDRENQCVIISGESGAGKTVAAKYIMSYISRVSGGGTKVQHVKDIILQSNPLLEAFGNAKTVRNNNSSRFGKYFEIQFSPGGEPDGGKISNFLLEKSRVVMRNPGERSFHIFYQLIEGASAEQKHSLGITSMDYYYYLSLSGSYKVDDIDDRREFQETLHAMNVIGIFAEEQTLVLQIVAGILHLGNISFKEVGNYAAVESEEFLAFPAYLLGINQDRLKEKLTSRQMDSKWGGKSESIHVTLNVEQACYTRDALAKALHARVFDFLVDSINKAMEKDHEEYNIGVLDIYGFEIFQKNGFEQFCINFVNEKLQQIFIELTLKAEQEEYVQEGIRWTPIEYFNNKIVCDLIENKVNPPGIMSILDDVCATMHAVGEGADQTLLQKLQMQIGSHEHFNSWNQGFIIHHYAGKVSYDMDGFCERNRDVLFMDLIELMQSSELPFIKSLFPENLQADKKGRPTTAGSKIKKQANDLVSTLMKCTPHYIRCIKPNETKKPRDWEESRVKHQVEYLGLKENIRVRRAGYAYRRIFQKFLQRYAILTKATWPSWQGEEKQGVLHLLQSVNMDSDQFQLGRSKVFIKAPESLFLLEEMRERKYDGYARVIQKSWRKFVARKKYVQMREEASDLLLNKKERRRNSINRNFIGDYIGMEEHPELQQFVGKREKIDFADTVTKYDRRFKGVKRDLLLTPKCLYLIGREKVKQGPDKGLVKEVLKRKIEIERILSVSLSTMQDDIFILHEQEYDSLLESVFKTEFLSLLAKRYEEKTQKQLPLKFSNTLELKLKKENWGPWSAGGSRQVQFHQGFGDLAVLKPSNKVLQVSIGPGLPKNSRPTRRNTTQNTGYSSGTQNANYPVRAAPPPPGYHQNGVIRNQYVPYPHAPGSQRSNQKSLYTSMARPPLPRQQSTSSDRVSQTPESLDFLKVPDQGAAGVRRQTTSRPPPAGGRPKPQPKPKPQVPQCKALYAYDAQDTDELSFNANDIIDIIKEDPSGWWTGRLRGKQGLFPNNYVTKI [MYO1E]”, the melting temperature in the series on HeLa Kyoto [1] (cell cycle stage: G1/S) was 49.6 °C; in the series with HeLa Kyoto [1] (cell cycle stage: mitosis), 49.5 °C. Further, the “solubility change mitosis (log2)” value in the series on HeLa Kyoto [2] is -0.207. In addition, the “solubility in G1/S (log2)” value in the series on HeLa Kyoto [3] was -0.131. The thermal stability score in the series on HeLa Kyoto [4] (setting [5]) was -0.0451; in the series with HeLa Kyoto [4] (cell cycle stage: mitosis), 1.13.
